Patent US10370433B2, “Compositions and methods for diagnosis and treatment of cancer” (BIONTECH AG, priority 2015, dated 2019)
Read-outs that look alike come from different tables or passages of the source.

How the values were obtained:
[1] = human, in vivo, iv
in vivo = details: BALB/c nu/nu, mouse, iv, total radioactivity; for tissue uptake at 1 h / tissue uptake at 2 h / tissue uptake at 4 h / tissue uptake at 6 h / tissue uptake at 24 h / tissue uptake at 0.5 h: Mean % ID/g; for tissue uptake at 0.5 h: 30 min

CC[C@H](C)[C@@H]1NC(=O)[C@@H]2CSSC[C@H](NC(=O)[C@H](C)NC(=O)CNC(=O)[C@H](CO)NC(=O)CNC(=O)CON=CC(=O)NCCCC[C@H](NC(=O)[C@H](CO)NC(=O)CNC(=O)[C@H](CO)NC(=O)CNC(=O)[C@H](CCCCNC(=O)C=NOCC(=O)NCC(=O)N[C@@H](CO)C(=O)NCC(=O)N[C@@H](C)C(=O)N[C@H]3CSSC[C@@H]4NC(=O)[C@H](CCCNC(=N)N)NC(=O)CNC(=O)[C@@H]5CCCN5C(=O)[C@@H]5CSSC[C@@H](C(=O)NCC(=O)O)NC(=O)[C@H](Cc6ccc(O)cc6)NC(=O)CNC(=O)[C@H](CC(N)=O)NC(=O)CNC(=O)[C@H](CCCNC(=N)N)NC(=O)[C@H](CSSC[C@H](NC(=O)[C@H](CC(=O)O)NC(=O)[C@@H]6CCCN6C(=O)CNC(=O)[C@H](CCCNC(=N)N)NC(=O)CNC(=O)[C@@H]6CCCN6C(=O)[C@H]([C@@H](C)O)NC(=O)[C@H](Cc6c[nH]c7ccccc67)NC(=O)[C@H](CC(N)=O)NC(=O)[C@H](CO)NC(=O)[C@H](Cc6ccc(O)cc6)NC(=O)[C@@H]6CCCN6C3=O)C(=O)N[C@@H](CCCNC(=N)N)C(=O)N[C@@H](CCCNC(=N)N)C(=O)N[C@@H](CC(=O)O)C(=O)N[C@@H](CO)C(=O)N[C@@H](CC(=O)O)C(=O)N5)NC(=O)[C@H]([C@@H](C)CC)NC4=O)NC(=O)[C@H](CO)NC(=O)CNC(=O)[C@H](CO)NC(=O)CNC(=O)[C@H](CCCCNC(=O)C=NOCC(=O)NCC(=O)N[C@@H](CO)C(=O)NCC(=O)N[C@@H](C)C(=O)N[C@H]3CSSC[C@@H]4NC(=O)[C@H](CCCNC(=N)N)NC(=O)CNC(=O)[C@@H]5CCCN5C(=O)[C@@H]5CSSC[C@@H](C(=O)NCC(=O)O)NC(=O)[C@H](Cc6ccc(O)cc6)NC(=O)CNC(=O)[C@H](CC(N)=O)NC(=O)CNC(=O)[C@H](CCCNC(=N)N)NC(=O)[C@H](CSSC[C@H](NC(=O)[C@H](CC(=O)O)NC(=O)[C@@H]6CCCN6C(=O)CNC(=O)[C@H](CCCNC(=N)N)NC(=O)CNC(=O)[C@@H]6CCCN6C(=O)[C@H]([C@@H](C)O)NC(=O)[C@H](Cc6c[nH]c7ccccc67)NC(=O)[C@H](CC(N)=O)NC(=O)[C@H](CO)NC(=O)[C@H](Cc6ccc(O)cc6)NC(=O)[C@@H]6CCCN6C3=O)C(=O)N[C@@H](CCCNC(=N)N)C(=O)N[C@@H](CCCNC(=N)N)C(=O)N[C@@H](CC(=O)O)C(=O)N[C@@H](CO)C(=O)N[C@@H](CC(=O)O)C(=O)N5)NC(=O)[C@H]([C@@H](C)CC)NC4=O)NC(=O)[C@H](CO)NC(=O)CNC(=O)[C@H](CO)NC(=O)CNC(=O)CN3CCN(CC(=O)O)CCN(CC(=O)O)CCN(CC(=O)O)CC3)C(=O)O)C(=O)N3CCC[C@H]3C(=O)N[C@@H](Cc3ccc(O)cc3)C(=O)N[C@@H](CO)C(=O)N[C@@H](CC(N)=O)C(=O)N[C@@H](Cc3c[nH]c4ccccc34)C(=O)N[C@@H]([C@@H](C)O)C(=O)N3CCC[C@H]3C(=O)NCC(=O)N[C@@H](CCCNC(=N)N)C(=O)NCC(=O)N3CCC[C@H]3C(=O)N[C@@H](CC(=O)O)C(=O)N[C@H]3CSSC[C@H](NC1=O)C(=O)N[C@@H](CCCNC(=N)N)C(=O)NCC(=O)N[C@@H](CC(N)=O)C(=O)NCC(=O)N[C@@H](Cc1ccc(O)cc1)C(=O)N[C@H](C(=O)NCC(=O)O)CSSC[C@H](NC(=O)[C@H](CC(=O)O)NC(=O)[C@H](CO)NC(=O)[C@H](CC(=O)O)NC(=O)[C@H](CCCNC(=N)N)NC(=O)[C@H](CCCNC(=N)N)NC3=O)C(=O)N1CCC[C@H]1C(=O)NCC(=O)N[C@@H](CCCNC(=N)N)C(=O)N2 (single isomer, unassigned) [^177Lu-(MC-FA-012)3, metal not drawn]
acute nephrotoxicity [1]: no acute nephrotoxicity | Mean % ID/g, Brain (CT26-huSeprase tumors; 30 min): 0.6895 % ID/g | Mean % ID/g, Injection site (CT26-huSeprase tumors; 30 min): 4.2434 % ID/g | Mean % ID/g, Intestine (CT26-huSeprase tumors; 30 min): 0.7435 % ID/g | Mean % ID/g, Kidneys (CT26-huSeprase tumors; 30 min): 286.7812 % ID/g | Mean % ID/g, Muscle (CT26-huSeprase tumors; 30 min): 0.0589 % ID/g | Mean % ID/g, Spleen (CT26-huSeprase tumors; 30 min): 0.9253 % ID/g | Mean % ID/g, Tumor (CT26-huSeprase tumors; 30 min): 9.8546 % ID/g | Mean % ID/g, Brain (CT26-huSeprase tumors; 1 h): 0.2284 % ID/g | Mean % ID/g, Injection site (CT26-huSeprase tumors; 1 h): 15.2418 % ID/g | Mean % ID/g, Intestine (CT26-huSeprase tumors; 1 h): 0.5079 % ID/g | Mean % ID/g, Muscle (CT26-huSeprase tumors; 1 h): 0.0423 % ID/g | Mean % ID/g, Spleen (CT26-huSeprase tumors; 1 h): 0.5493 % ID/g | Mean % ID/g, Tumor (CT26-huSeprase tumors; 1 h): 6.7929 % ID/g | Mean % ID/g, Brain (CT26-huSeprase tumors; 2 h): 0.5818 % ID/g | Mean % ID/g, Intestine (CT26-huSeprase tumors; 2 h): 1.0902 % ID/g | Mean % ID/g, Kidneys (CT26-huSeprase tumors; 2 h): 272.3888 % ID/g | Mean % ID/g, Muscle (CT26-huSeprase tumors; 2 h): 0.0317 % ID/g | Mean % ID/g, Spleen (CT26-huSeprase tumors; 2 h): 0.6561 % ID/g | Mean % ID/g, Tumor (CT26-huSeprase tumors; 2 h): 8.1504 % ID/g | Mean % ID/g, Brain (CT26-huSeprase tumors; 4 h): 0.3159 % ID/g | Mean % ID/g, Intestine (CT26-huSeprase tumors; 4 h): 0.2913 % ID/g | Mean % ID/g, Kidneys (CT26-huSeprase tumors; 4 h): 245.1877 % ID/g | Mean % ID/g, Muscle (CT26-huSeprase tumors; 4 h): 0.0241 % ID/g | Mean % ID/g, Spleen (CT26-huSeprase tumors; 4 h): 0.5931 % ID/g | Mean % ID/g, Tumor (CT26-huSeprase tumors; 4 h): 7.7667 % ID/g | Mean % ID/g, Brain (CT26-huSeprase tumors; 6 h): 0.2159 % ID/g | Mean % ID/g, Intestine (CT26-huSeprase tumors; 6 h): 0.9309 % ID/g | Mean % ID/g, Kidneys (CT26-huSeprase tumors; 6 h): 259.4467 % ID/g | Mean % ID/g, Muscle (CT26-huSeprase tumors; 6 h): 0.1259 % ID/g | Mean % ID/g, Spleen (CT26-huSeprase tumors; 6 h): 0.6287 % ID/g | Mean % ID/g, Tumor (CT26-huSeprase tumors; 6 h): 7.8057 % ID/g | Mean % ID/g, Brain (CT26-huSeprase tumors; 24 h): 0.2151 % ID/g | Mean % ID/g, Intestine (CT26-huSeprase tumors; 24 h): 0.3347 % ID/g | Mean % ID/g, Kidneys (CT26-huSeprase tumors; 24 h): 213.4107 % ID/g | Mean % ID/g, Muscle (CT26-huSeprase tumors; 24 h): 0.0253 % ID/g | Mean % ID/g, Spleen (CT26-huSeprase tumors; 24 h): 0.4561 % ID/g | Mean % ID/g, Tumor (CT26-huSeprase tumors; 24 h): 5.8505 % ID/g | Mean % ID/g, Kidneys (CT26-huSeprase tumors; mouse, in vivo): 222.3177 % ID/g | signal in tumor (CT26-huSeprase tumors; mouse, in vivo): 9.9-5.9 | tumor targeting (CT26-huSeprase tumors; mouse, in vivo): specific tumor targeting | tissue uptake at 1 h (in vivo): 0.67 %ID/g | tissue uptake at 2 h (in vivo): 0.607 %ID/g | tissue uptake at 4 h (in vivo): 0.451 %ID/g | tissue uptake at 6 h (in vivo): 0.648 %ID/g | tissue uptake at 24 h (in vivo): 0.189 %ID/g | tissue uptake at 0.5 h (in vivo; Blood): 1.35 %ID/g | tissue uptake at 1 h (in vivo; Blood): 0.36 %ID/g | tissue uptake at 2 h (in vivo; Blood): 0.135 %ID/g | tissue uptake at 4 h (in vivo; Blood): 0.042 %ID/g | tissue uptake at 6 h (in vivo; Blood): 0.0374 %ID/g | tissue uptake at 24 h (in vivo; Blood): 0.0429 %ID/g | tissue uptake at 0.5 h (in vivo; Heart): 0.615 %ID/g | tissue uptake at 1 h (in vivo; Heart): 0.187 %ID/g | tissue uptake at 2 h (in vivo; Heart): 0.128 %ID/g | tissue uptake at 4 h (in vivo; Heart): 0.102 %ID/g | tissue uptake at 6 h (in vivo; Heart): 0.0876 %ID/g | tissue uptake at 24 h (in vivo; Heart): 0.0641 %ID/g | tissue uptake at 2 h (in vivo; Injection site): 2.87 %ID/g | tissue uptake at 4 h (in vivo; Injection site): 2.61 %ID/g | tissue uptake at 6 h (in vivo; Injection site): 1.57 %ID/g | tissue uptake at 24 h (in vivo; Injection site): 0.983 %ID/g | tissue uptake at 0.5 h (in vivo; Liver): 0.668 %ID/g | tissue uptake at 1 h (in vivo; Liver): 0.398 %ID/g | tissue uptake at 2 h (in vivo; Liver): 0.44 %ID/g | tissue uptake at 4 h (in vivo; Liver): 0.41 %ID/g | tissue uptake at 6 h (in vivo; Liver): 0.431 %ID/g | tissue uptake at 24 h (in vivo; Liver): 0.363 %ID/g | tissue uptake (in vivo; signal in kidney): 287 %ID/g
